# Experimental data reported in the supplement of paper PMC9170038.
# How the values were obtained:
# [1] = test system: K4 kissing-loop RNA reporter; assay: apparent KD of K4 kissing-loop reporter; higher = weaker reporter binding; conditions: Eterna round: R107;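 further: bound reporter read as fluorescence of individual clusters on recovered sequencing chips by microscopy, with normalized cluster intensities fitted with a binding model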
# Procedure: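 RNA-MaP round R107: designed RNA switches with theophylline, tryptophan, arginine or FMN aptamers are transcribed on-chip within common flanks. They are titrated with a labelled K4 kissing-loop RNA reporter in RNA-MaP buffer (100 mM Tris pH 7.5, 80 mM KCl, 4 mM MgCl2), without ligand or with the indicated ligand. Median apparent KD per design.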
# MS2 coat protein = assay: apparent KD of MS2 coat protein; designed switch direction (-1 OFF switch, 1 ON switch): -1; higher = weaker reporter binding
# Method in brief: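 Transcription of designed RNA switches on Illumina chips was done by stalled E. coli RNA polymerase. SNAP-549-labelled MS2 coat protein was then titrated in doubling steps from 0.7 or 1.5 nM to 3 µM, with steps of 0.8–1.5 h at the lowest and 10–20 min at the highest concentration. The per-design median over clusters of curve-fitted normalised fluorescence is reported as apparent KD.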
# [2] = input ligand: theophylline 20 uM
# [3] = input ligand: tryptophan 2.4 mM
# [4] = Eterna round: R95, input ligand: microRNA oligo, concentration not stated
# [5] = Eterna round: R95, input ligand: FMN 200 uM
# [6] = Eterna round: R95, input ligand: none
Sequence,apparent KD of K4 kissing-loop reporter ([1]; input ligand: FMN 200 uM) [nM],apparent KD of K4 kissing-loop reporter ([1]; input ligand: arginine 13.2 mM) [nM],apparent KD of K4 kissing-loop reporter ([1]; input ligand: none) [nM],"apparent KD of K4 kissing-loop reporter [1, 2] [nM]","apparent KD of K4 kissing-loop reporter [1, 3] [nM]",apparent KD of MS2 coat protein (MS2 coat protein; input ligand: FMN 200 uM) [nM],apparent KD of MS2 coat protein (MS2 coat protein; input ligand: none) [nM],apparent KD of MS2 coat protein (MS2 coat protein; [4]) [nM],apparent KD of MS2 coat protein (MS2 coat protein; [5]) [nM],apparent KD of MS2 coat protein (MS2 coat protein; [6]) [nM]
AAGUGAUGUUGUAGUGAUGUUGUGAUGUUGCAGGAUAUAUAGUGAUGUAGAAGGGUAUGUGCAGUUUUCUUUUUUGAGUGUUGAU [aavamullin],72.1,30.8,57.1,43.7,56.9,–,–,–,–,–
AUUAUAAAGUCGGCCGCCACUGAGAGUAGUGAUGUUACUCUUUUCCUUUAGAUAUUAUAUUUUAUCAGGACCGGGACAUCUGAUU [JR_Nu_ExcTryptoB_Sub024],147,126,148,134,130,–,–,–,–,–
UUUCGUAGAAGUGAUACCAGACUUGAAAGUGAUGUUUUCCAAUAAUUUAAAUUUUUAGCUGUCCCUUGGCAGCACAGUUUAUUUA [JR_Nu_ExcTheophyB_Sub026],218,298,263,334,165,–,–,–,–,–
UAGUAGUAGCGAGGAUAUGCAAUAGGCGAGUGAUGUUCGCCAGGCGGGCGUCGCAUAUAAGAAAGAGCAGAAGGCGCUAGGUAGA [SameState - FMN B / A],814,303,329,397,399,–,–,–,–,–
CUUUAUCAACCAGAUACCAGCGGUUCUCUAGUUGGCUUCCGUAGUGAUGUUGCGUGGUCCCGCCCUUGGCAGCUGGCCAUGACUA [theeternabot_sameState_KL_Theo_B_5],1060,684,1170,798,993,–,–,–,–,–
UCUCAAGCACAGUGAUGUUGUGCUUGGGAAGGAGCGCGUGGGAACGCAGGUAGGUCGCCCGGUAAAUCGCGUCAAUGCUAGAGGC [Arg A Ex t5],118,110,99.9,100,116,–,–,–,–,–
GUAUGUGGAAACACGUACUUGUAUCCUAAGCAGGAUAUGCGGAAACGCAGAAGGGCUACCAGCGAGUUUAUCCAGUGAUGUUGGA [Ex FMN A 12],289,235,269,264,288,–,–,–,–,–
UCCUGCAAUCGGCCACGAAAGUGGAUUGAUACCAGAGUCGAAAGACUCCCUUGGCAGCGAGUGAUGUUCGAAGCAGGUAAAUAAA,464,380,502,514,432,–,–,–,–,–
"CGCAAAACCGUAAGGAUAUCCUUUCCGAAAGGGACGGAGAAGGUACAUGAGGAUCACCCAUGUCCUCCGAGCUG [Eternabot (Original) Solution 18] (Eterna round: R97, puzzle: Brourd's mod of Exclusion 4)",–,–,–,–,–,20.6,18,–,–,–
"AGAACAUCAGGAUAUCCAUGACACUACAUGAGGAUCACCCAUGUGAAUCUCCUCAAGGCGGGAGAAGGGAUGUUUG [Eternabot (L1) Solution 34] (Eterna round: R97, puzzle: Exclusion 5)",–,–,–,–,–,272,86.7,–,–,–
AAAACACAUGAGGAUCACCCAUGUGAGGAUAUGUUCAUUGUGAGCAAACUUAUGAUGAACAGAAGGCACAUAAA [JR_Exclusion1_Sub017] (puzzle: Exclusion 1),–,–,–,–,–,–,–,38.9,–,–
AAGAAACGAGGAUAUACAAUUAAGUGAGAGAGGGAAAUGUGACAUGAGGAUCACCCAUGUAGAAGGCGUAAGAG [JR_Exclu2_Sub084] (puzzle: Exclusion 2),–,–,–,–,–,–,–,44.2,66.2,53.5
UCAUACGGUGAGGAUAUCUCCGCUAAAGUGUGUAGAGAAGGCGCUACAUGAGGAUCACCCAUGUUUAUGGGCAG [Ex-6 Malc#12] (puzzle: Exclusion 6),–,–,–,–,–,–,–,347,52.9,443
